What follows are sequences tested on Escherichia coli TOP10 (assay: shrunken log2 fold change of peptide-encoding DNA abundance (4.5 h post-induction vs induction); higher = less antimicrobial activity (less host growth inhibition)). Details: time post-induction: 4.5 h; library: site-saturation at positions 5, 18, 19, 20.
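Also: peptides expressed intracellularly from a pBAD plasmid library in pooled LB shake-flask culture, induced with 0.3% L-arabinose, DNA abundance read by NGS, three biological replicates, DESeq2 with apeglm shrinkage.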

Sequence | shrunken log2 fold change
RRIRRRPPRLPRPRPRPTLKPRP | 0.379
RRIRIRPPRLPRPRPRPIITPRP | -0.625
RRIRFRPPRLPRPRPRPQKMPRP | -0.221
RRIRQRPPRLPRPRPRPEKHPRP | -0.214
RRIRWRPPRLPRPRPRPAKKPRP | 0.0808
RRIRGRPPRLPRPRPRPTNEPRP | 0.46
RRIRQRPPRLPRPRPRPNNGPRP | -0.361
RRIRDRPPRLPRPRPRPKYDPRP | 0.0612
RRIRQRPPRLPRPRPRPDQRPRP | -0.00141
RRIRKRPPRLPRPRPRPRKFPRP | 0.106
RRIRHRPPRLPRPRPRPIWNPRP | -0.892
RRIRQRPPRLPRPRPRPLLTPRP | -0.235
RRIRFRPPRLPRPRPRPMRMPRP | -0.0248
RRIRCRPPRLPRPRPRPMYLPRP | -0.464
RRIRQRPPRLPRPRPRPKCNPRP | -0.472
RRIRQRPPRLPRPRPRPSDPPRP | 0.114
RRIRLRPPRLPRPRPRPAVAPRP | 0.552
RRIRWRPPRLPRPRPRPRLIPRP | 0.55
RRIRLRPPRLPRPRPRPNMLPRP | -0.58
RRIRGRPPRLPRPRPRPKHVPRP | 0.0824
RRIRKRPPRLPRPRPRPRSMPRP | -0.164
RRIRPRPPRLPRPRPRPMLEPRP | 0.0664
RRIRNRPPRLPRPRPRPVGNPRP | -0.00879
RRIRDRPPRLPRPRPRPLMCPRP | 0.498
RRIRVRPPRLPRPRPRPRYQPRP | 0.171

Sequence | shrunken log2 fold change
RRIRERPPRLPRPRPRPCVMPRP | -0.41
RRIRHRPPRLPRPRPRPDWTPRP | -0.0689
RRIRYRPPRLPRPRPRPDWVPRP | -0.252
RRIRDRPPRLPRPRPRPEEDPRP | 0.012
RRIRPRPPRLPRPRPRPTLSPRP | 0.421
RRIRQRPPRLPRPRPRPMNAPRP | 0.0115
RRIRRRPPRLPRPRPRPQAMPRP | 0.0414
RRIRSRPPRLPRPRPRPSREPRP | -0.173
RRIRCRPPRLPRPRPRPRWWPRP | 0.718
RRIRNRPPRLPRPRPRPVHRPRP | -0.0338
RRIRLRPPRLPRPRPRPSNDPRP | 2.11
RRIRDRPPRLPRPRPRPQWEPRP | 0.033
RRIRRRPPRLPRPRPRPREVPRP | 0.442
RRIRVRPPRLPRPRPRPHYHPRP | -0.397
RRIRERPPRLPRPRPRPCLHPRP | -0.0164
RRIRVRPPRLPRPRPRPCQLPRP | -0.202
RRIRTRPPRLPRPRPRPNYWPRP | -0.208
RRIRARPPRLPRPRPRPQFRPRP | -0.123
RRIRPRPPRLPRPRPRPEFVPRP | -0.0384
RRIRKRPPRLPRPRPRPTFSPRP | 0.148
RRIRIRPPRLPRPRPRPVKIPRP | 0.0113
RRIRHRPPRLPRPRPRPMGTPRP | -0.0597
RRIRMRPPRLPRPRPRPSCVPRP | 0.22
RRIRARPPRLPRPRPRPWKQPRP | 0.00355
RRIRERPPRLPRPRPRPDWIPRP | -0.126

Sequence | shrunken log2 fold change
RRIRFRPPRLPRPRPRPEMCPRP | -0.0817
RRIRGRPPRLPRPRPRPTMWPRP | 0.757
RRIRQRPPRLPRPRPRPQAKPRP | 0.0346
RRIRMRPPRLPRPRPRPYWCPRP | -0.0737
RRIRARPPRLPRPRPRPRSLPRP | 0.0678
RRIRNRPPRLPRPRPRPEYFPRP | -0.0135
RRIRGRPPRLPRPRPRPPRSPRP | 1.19
RRIRWRPPRLPRPRPRPCVPPRP | -0.035
RRIRNRPPRLPRPRPRPMCLPRP | -0.0215
RRIRKRPPRLPRPRPRPYCCPRP | -0.237
RRIRNRPPRLPRPRPRPFDNPRP | -0.465
RRIRNRPPRLPRPRPRPVPQPRP | 0.24
RRIRVRPPRLPRPRPRPRSNPRP | 0.125
RRIRWRPPRLPRPRPRPPGNPRP | 0.687
RRIRDRPPRLPRPRPRPPTWPRP | 0.291
RRIRWRPPRLPRPRPRPNADPRP | 0.466
RRIRCRPPRLPRPRPRPETAPRP | 0.308
RRIRYRPPRLPRPRPRPAMPPRP | -0.549
RRIRSRPPRLPRPRPRPQFFPRP | -0.158
RRIRHRPPRLPRPRPRPKWKPRP | 0.107
RRIRYRPPRLPRPRPRPRYRPRP | -0.0551
RRIRYRPPRLPRPRPRPQDLPRP | 0.0284
RRIRSRPPRLPRPRPRPVCFPRP | 0.156
RRIRLRPPRLPRPRPRPDDAPRP | -0.115
RRIRLRPPRLPRPRPRPVRKPRP | -0.0647

Sequence | shrunken log2 fold change
RRIRTRPPRLPRPRPRPPKVPRP | 0.286
RRIRWRPPRLPRPRPRPHNNPRP | -0.749
RRIRARPPRLPRPRPRPVVFPRP | 0.213
RRIRGRPPRLPRPRPRPEQVPRP | 0.995
RRIRRRPPRLPRPRPRPQNMPRP | -0.472
RRIRVRPPRLPRPRPRPILPPRP | -0.331
RRIRMRPPRLPRPRPRPYSAPRP | 0.0186
RRIRCRPPRLPRPRPRPCTWPRP | -0.0985
RRIRWRPPRLPRPRPRPCRPPRP | 0.115
RRIRPRPPRLPRPRPRPPKCPRP | -0.028
RRIRRRPPRLPRPRPRPRAVPRP | 0.427
RRIRYRPPRLPRPRPRPLIIPRP | -1.2
RRIRCRPPRLPRPRPRPKRCPRP | -0.00852
RRIRARPPRLPRPRPRPMHLPRP | -0.00822
RRIRERPPRLPRPRPRPKTFPRP | 0.0567
RRIRIRPPRLPRPRPRPSISPRP | -0.046
RRIRYRPPRLPRPRPRPLREPRP | 0.483
RRIRSRPPRLPRPRPRPWSCPRP | 0.194
RRIRFRPPRLPRPRPRPIDIPRP | 0.0578
RRIRHRPPRLPRPRPRPQECPRP | -0.0126
RRIRCRPPRLPRPRPRPKKGPRP | -0.129
RRIRVRPPRLPRPRPRPRKWPRP | 0.474
RRIRCRPPRLPRPRPRPEIHPRP | -0.217
RRIRYRPPRLPRPRPRPVQMPRP | -0.0524
RRIRHRPPRLPRPRPRPKCVPRP | -0.069

Sequence | shrunken log2 fold change
RRIRQRPPRLPRPRPRPYRQPRP | 0.00902
RRIRKRPPRLPRPRPRPNCMPRP | -0.0663
RRIRIRPPRLPRPRPRPCMLPRP | -0.61
RRIRYRPPRLPRPRPRPLPHPRP | -0.375
RRIRARPPRLPRPRPRPSSKPRP | -0.134
RRIRNRPPRLPRPRPRPGRHPRP | 0.00674
RRIRERPPRLPRPRPRPVSKPRP | -0.201
RRIRVRPPRLPRPRPRPMPTPRP | 0.282
RRIRYRPPRLPRPRPRPVNMPRP | -0.47
RRIRTRPPRLPRPRPRPCVSPRP | -0.221
RRIRMRPPRLPRPRPRPYGDPRP | 0.0122
RRIRCRPPRLPRPRPRPKNLPRP | -0.292
RRIRQRPPRLPRPRPRPKVFPRP | -0.00192
RRIRKRPPRLPRPRPRPAYMPRP | 0.0668
RRIRKRPPRLPRPRPRPLFSPRP | -0.0137
RRIRHRPPRLPRPRPRPCNIPRP | -0.236
RRIRCRPPRLPRPRPRPARPPRP | 0.52
RRIRLRPPRLPRPRPRPHIMPRP | -0.531
RRIRKRPPRLPRPRPRPDMDPRP | 0.0224
RRIRYRPPRLPRPRPRPHYKPRP | -0.316
RRIRFRPPRLPRPRPRPGWVPRP | 0.176
RRIRYRPPRLPRPRPRPMHVPRP | 0.214
RRIRQRPPRLPRPRPRPDPWPRP | 0.161
RRIRQRPPRLPRPRPRPIIVPRP | -0.0856
RRIRTRPPRLPRPRPRPDQQPRP | -0.0173

Sequence | shrunken log2 fold change
RRIRVRPPRLPRPRPRPFPQPRP | -0.312
RRIRCRPPRLPRPRPRPVKSPRP | 0.967
RRIRIRPPRLPRPRPRPNLSPRP | -0.0917
RRIRFRPPRLPRPRPRPKHRPRP | -0.094
RRIRYRPPRLPRPRPRPVIEPRP | -0.424
RRIRYRPPRLPRPRPRPPDKPRP | 0.194
RRIRTRPPRLPRPRPRPLSYPRP | -0.155
RRIRTRPPRLPRPRPRPFQIPRP | -0.103
RRIRCRPPRLPRPRPRPWHQPRP | -0.0304
RRIRERPPRLPRPRPRPTTDPRP | -0.148
RRIRKRPPRLPRPRPRPGLEPRP | 1.18
RRIRGRPPRLPRPRPRPGGLPRP | 0.842
RRIRLRPPRLPRPRPRPTYWPRP | -0.256
RRIRERPPRLPRPRPRPFDLPRP | -0.504
RRIRHRPPRLPRPRPRPALLPRP | 0.284
RRIRARPPRLPRPRPRPGTSPRP | 0.24
RRIRTRPPRLPRPRPRPMWRPRP | -0.0938
RRIRNRPPRLPRPRPRPNKTPRP | -0.0415
RRIRLRPPRLPRPRPRPFEWPRP | -0.151
RRIRLRPPRLPRPRPRPVRNPRP | 0.0234
RRIRYRPPRLPRPRPRPGHKPRP | -0.485
RRIRQRPPRLPRPRPRPPDNPRP | 0.00496
RRIRQRPPRLPRPRPRPYILPRP | -0.773
RRIRQRPPRLPRPRPRPCIVPRP | -0.747
RRIRWRPPRLPRPRPRPHHVPRP | -0.108

Source: the supplement of paper PMC9112550, “Optimization of the antimicrobial peptide Bac7 by deep mutational scanning” (BMC Biology, 2022)
